Assay results reported in paper PMC10405849, “Soluble CD93 lectin-like domain sequesters HMGB1 to ameliorate inflammatory diseases” (Theranostics, 2023).

Biological target: T1, soluble recombinant human CD93 ectodomain protein rCD93D123 (Thr22-Lys580) (human, UniProt Q9NPY3 22-580)
T1 construct: CD93, human, ectodomain D1 (lectin-like domain) + D2 (five EGF-like repeats) + D3 (mucin-like domain), residues Thr22-Lys580; also called soluble rCD93; source: HEK293 cell protein expression system, purified (nickel-chelating Sepharose column)
T1 sequence (looked up): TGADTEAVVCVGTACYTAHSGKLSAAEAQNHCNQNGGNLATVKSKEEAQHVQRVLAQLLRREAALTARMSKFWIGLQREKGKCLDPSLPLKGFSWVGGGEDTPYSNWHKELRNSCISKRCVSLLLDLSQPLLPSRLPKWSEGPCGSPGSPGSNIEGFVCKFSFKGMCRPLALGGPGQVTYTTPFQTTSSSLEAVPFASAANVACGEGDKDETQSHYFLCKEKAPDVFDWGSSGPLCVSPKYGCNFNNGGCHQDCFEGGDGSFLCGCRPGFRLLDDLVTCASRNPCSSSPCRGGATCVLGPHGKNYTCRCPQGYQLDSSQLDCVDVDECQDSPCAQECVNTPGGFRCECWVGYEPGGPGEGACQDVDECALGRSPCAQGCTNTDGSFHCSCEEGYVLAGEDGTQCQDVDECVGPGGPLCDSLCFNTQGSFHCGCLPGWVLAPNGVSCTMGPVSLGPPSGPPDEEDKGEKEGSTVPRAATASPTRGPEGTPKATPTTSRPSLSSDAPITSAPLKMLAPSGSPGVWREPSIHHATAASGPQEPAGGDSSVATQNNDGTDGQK
Test: co-IP; rCD93D123 (5 nM) and HMGB1 (5 nM) incubated 1 hour at 37 °C in 50 mM Tris-HCl, 100 mM NaCl, 0.25% Triton X-100, 1 mM MgCl2, 2 mM EGTA; precipitated with anti-HMGB1 antibody on protein A agarose overnight at 4 °C; blot with anti-c-Myc antibody
Details: both partners purified

binding result: binds
B1: recombinant human high-mobility group box 1 (HMGB1) protein (natural protein, UniProt P09429 1-215, looked up)
chain: MGKGDPKKPRGKMSSYAFFVQTCREEHKKKHPDASVNFSEFSKKCSERWKTMSAKEKGKFEDMAKADKARYEREMKTYIPPKGETKKKFKDPNAPKRPPSAFFLFCSEYRPKIKGEHPGLSIGDVAKKLGEMWNNTAADDKQPYEKKAAKLKEKYEKDIAAYRAKGKPDAAKKGVVKAEKSKKKKEEEEDEEDEEDEEEEEDEEDEDEEEDDDDE
notes: High-mobility group box 1 protein, human, recombinant; No catalogue number is printed; source: bought: R&D Systems
